# Results: US20250076311A1 (Chugai, published 2025)
# B1: MS1032LO06-P1375m (antibody, human IgG1, kappa, name in EU numbering)
# heavy: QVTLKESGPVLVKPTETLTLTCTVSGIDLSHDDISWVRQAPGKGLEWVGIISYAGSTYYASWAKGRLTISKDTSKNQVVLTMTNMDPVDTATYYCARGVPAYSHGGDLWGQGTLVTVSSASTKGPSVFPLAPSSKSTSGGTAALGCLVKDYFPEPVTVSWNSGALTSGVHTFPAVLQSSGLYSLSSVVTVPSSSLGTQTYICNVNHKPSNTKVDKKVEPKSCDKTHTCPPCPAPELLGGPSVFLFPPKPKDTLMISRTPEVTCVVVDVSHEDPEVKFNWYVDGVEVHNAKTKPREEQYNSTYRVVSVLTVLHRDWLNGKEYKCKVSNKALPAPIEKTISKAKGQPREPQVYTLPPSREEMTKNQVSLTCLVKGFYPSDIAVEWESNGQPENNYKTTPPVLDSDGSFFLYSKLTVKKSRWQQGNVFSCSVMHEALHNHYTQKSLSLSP
# light: DIVMTQSPATLSLSPGERATLSCTSSQSVYHANWLSWFQQKPGQPPKLLIYWASTLAYGVPSRFSGSGSGTDFTLTISSLQPEDAATYYCAGGYGGGRYAFGQGTKVEIKRTVAAPSVFIFPPSDEQLKSGTASVVCLLNNFYPREAKVQWKVDNALQSGNSQESVTEQDSKDSTYSLSSTLTLSKADYEKHKVYACEVTHQGLSSPVTKSFNRGEC
# notes: also called M103205H795-P1375m; copies: 2 + 2
# B2: M103205H795-P1487m/M103202L889-SK1 (antibody, human IgG1, kappa, name in EU numbering)
# heavy: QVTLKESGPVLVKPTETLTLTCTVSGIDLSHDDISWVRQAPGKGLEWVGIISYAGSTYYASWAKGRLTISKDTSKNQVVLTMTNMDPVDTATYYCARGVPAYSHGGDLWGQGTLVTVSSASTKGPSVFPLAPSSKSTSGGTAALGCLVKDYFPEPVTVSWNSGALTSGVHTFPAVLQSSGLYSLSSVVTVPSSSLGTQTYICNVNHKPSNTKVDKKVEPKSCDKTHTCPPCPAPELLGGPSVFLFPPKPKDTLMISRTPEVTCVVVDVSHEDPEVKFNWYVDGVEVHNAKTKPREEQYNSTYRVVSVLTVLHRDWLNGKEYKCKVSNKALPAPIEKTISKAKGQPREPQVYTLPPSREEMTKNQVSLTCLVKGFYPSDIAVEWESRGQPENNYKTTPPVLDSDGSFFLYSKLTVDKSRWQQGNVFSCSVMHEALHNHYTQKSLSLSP
# light: DIVMTQSPATLSLSPGERATLSCTSSQSVYHANWLSWFQQKPGQPPKLLIYWASTLAYGVPSRFSGSGSGTDFTLTISSLQPEDAATYYCAGGYGGGRYAFGQGTKVEIKRTVAAPSVFIFPPSDEQLKSGTASVVCLLNNFYPREAKVQWKVDNALQSGNSQESVTEQDSKDSTYSLSSTLTLSKADYEKHKVYACEVTHQGLSSPVTKSFNRGEC
# notes: copies: 2 + 2
# B3: M103205H795-P1490m/M103202L889-SK1 (antibody, human IgG1, kappa, name in EU numbering)
# heavy: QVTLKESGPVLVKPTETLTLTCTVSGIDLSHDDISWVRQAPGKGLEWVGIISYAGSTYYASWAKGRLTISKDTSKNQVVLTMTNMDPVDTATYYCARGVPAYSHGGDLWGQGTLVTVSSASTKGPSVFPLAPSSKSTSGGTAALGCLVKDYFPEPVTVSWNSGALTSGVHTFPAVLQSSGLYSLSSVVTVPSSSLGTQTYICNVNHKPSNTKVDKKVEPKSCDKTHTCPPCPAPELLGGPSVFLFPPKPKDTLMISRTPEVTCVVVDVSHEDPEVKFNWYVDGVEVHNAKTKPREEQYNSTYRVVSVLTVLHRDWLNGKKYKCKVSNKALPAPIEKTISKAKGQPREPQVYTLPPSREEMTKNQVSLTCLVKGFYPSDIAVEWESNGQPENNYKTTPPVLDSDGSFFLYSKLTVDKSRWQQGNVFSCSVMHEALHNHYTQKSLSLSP
# light: DIVMTQSPATLSLSPGERATLSCTSSQSVYHANWLSWFQQKPGQPPKLLIYWASTLAYGVPSRFSGSGSGTDFTLTISSLQPEDAATYYCAGGYGGGRYAFGQGTKVEIKRTVAAPSVFIFPPSDEQLKSGTASVVCLLNNFYPREAKVQWKVDNALQSGNSQESVTEQDSKDSTYSLSSTLTLSKADYEKHKVYACEVTHQGLSSPVTKSFNRGEC
# notes: copies: 2 + 2
# B4: M103205H795-P1489m/M103202L889-SK1 (antibody, human IgG1, kappa, name in EU numbering)
# heavy: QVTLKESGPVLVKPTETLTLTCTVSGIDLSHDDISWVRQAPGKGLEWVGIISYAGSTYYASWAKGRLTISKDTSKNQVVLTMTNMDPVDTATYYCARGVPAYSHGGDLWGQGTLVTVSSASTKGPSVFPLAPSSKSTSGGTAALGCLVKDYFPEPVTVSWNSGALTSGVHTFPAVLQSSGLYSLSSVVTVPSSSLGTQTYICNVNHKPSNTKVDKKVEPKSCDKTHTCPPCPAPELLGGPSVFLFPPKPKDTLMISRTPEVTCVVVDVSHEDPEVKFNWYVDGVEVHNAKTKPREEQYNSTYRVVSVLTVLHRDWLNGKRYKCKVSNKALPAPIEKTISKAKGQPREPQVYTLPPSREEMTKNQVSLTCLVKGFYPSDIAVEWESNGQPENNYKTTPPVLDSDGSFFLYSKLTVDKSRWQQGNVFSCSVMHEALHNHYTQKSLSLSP
# light: DIVMTQSPATLSLSPGERATLSCTSSQSVYHANWLSWFQQKPGQPPKLLIYWASTLAYGVPSRFSGSGSGTDFTLTISSLQPEDAATYYCAGGYGGGRYAFGQGTKVEIKRTVAAPSVFIFPPSDEQLKSGTASVVCLLNNFYPREAKVQWKVDNALQSGNSQESVTEQDSKDSTYSLSSTLTLSKADYEKHKVYACEVTHQGLSSPVTKSFNRGEC
# notes: copies: 2 + 2
# B5: M103205H795-P1484m/M103202L889-SK1 (antibody, human IgG1, kappa, name in EU numbering)
# heavy: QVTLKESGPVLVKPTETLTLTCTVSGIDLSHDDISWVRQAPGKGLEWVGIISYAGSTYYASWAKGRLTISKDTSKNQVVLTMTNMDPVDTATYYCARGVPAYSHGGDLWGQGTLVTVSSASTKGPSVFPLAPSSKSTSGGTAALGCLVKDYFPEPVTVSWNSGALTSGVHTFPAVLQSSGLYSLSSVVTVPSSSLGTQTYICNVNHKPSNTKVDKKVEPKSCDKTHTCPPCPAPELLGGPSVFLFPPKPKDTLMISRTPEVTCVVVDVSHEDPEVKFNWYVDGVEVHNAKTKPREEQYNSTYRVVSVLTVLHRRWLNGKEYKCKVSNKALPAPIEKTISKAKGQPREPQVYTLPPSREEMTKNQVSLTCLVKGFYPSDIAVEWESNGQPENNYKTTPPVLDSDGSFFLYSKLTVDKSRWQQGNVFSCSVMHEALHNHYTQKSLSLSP
# light: DIVMTQSPATLSLSPGERATLSCTSSQSVYHANWLSWFQQKPGQPPKLLIYWASTLAYGVPSRFSGSGSGTDFTLTISSLQPEDAATYYCAGGYGGGRYAFGQGTKVEIKRTVAAPSVFIFPPSDEQLKSGTASVVCLLNNFYPREAKVQWKVDNALQSGNSQESVTEQDSKDSTYSLSSTLTLSKADYEKHKVYACEVTHQGLSSPVTKSFNRGEC
# notes: copies: 2 + 2
# B6: M103205H795-P1488m/M103202L889-SK1 (antibody, human IgG1, kappa, name in EU numbering)
# heavy: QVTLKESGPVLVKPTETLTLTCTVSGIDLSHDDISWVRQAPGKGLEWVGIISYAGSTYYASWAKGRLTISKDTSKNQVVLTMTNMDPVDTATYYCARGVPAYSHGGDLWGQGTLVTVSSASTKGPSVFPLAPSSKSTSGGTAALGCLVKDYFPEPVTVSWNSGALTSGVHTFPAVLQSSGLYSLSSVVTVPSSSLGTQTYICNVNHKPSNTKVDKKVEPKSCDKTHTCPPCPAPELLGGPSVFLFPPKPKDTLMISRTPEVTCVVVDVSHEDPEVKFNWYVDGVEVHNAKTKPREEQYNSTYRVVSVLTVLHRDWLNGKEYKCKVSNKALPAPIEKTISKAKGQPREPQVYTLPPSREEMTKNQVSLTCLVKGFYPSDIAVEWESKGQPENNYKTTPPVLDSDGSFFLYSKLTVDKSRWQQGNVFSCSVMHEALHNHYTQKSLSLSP
# light: DIVMTQSPATLSLSPGERATLSCTSSQSVYHANWLSWFQQKPGQPPKLLIYWASTLAYGVPSRFSGSGSGTDFTLTISSLQPEDAATYYCAGGYGGGRYAFGQGTKVEIKRTVAAPSVFIFPPSDEQLKSGTASVVCLLNNFYPREAKVQWKVDNALQSGNSQESVTEQDSKDSTYSLSSTLTLSKADYEKHKVYACEVTHQGLSSPVTKSFNRGEC
# notes: copies: 2 + 2
# B7: M103205H795-P1485m/M103202L889-SK1 (antibody, human IgG1, kappa, name in EU numbering)
# heavy: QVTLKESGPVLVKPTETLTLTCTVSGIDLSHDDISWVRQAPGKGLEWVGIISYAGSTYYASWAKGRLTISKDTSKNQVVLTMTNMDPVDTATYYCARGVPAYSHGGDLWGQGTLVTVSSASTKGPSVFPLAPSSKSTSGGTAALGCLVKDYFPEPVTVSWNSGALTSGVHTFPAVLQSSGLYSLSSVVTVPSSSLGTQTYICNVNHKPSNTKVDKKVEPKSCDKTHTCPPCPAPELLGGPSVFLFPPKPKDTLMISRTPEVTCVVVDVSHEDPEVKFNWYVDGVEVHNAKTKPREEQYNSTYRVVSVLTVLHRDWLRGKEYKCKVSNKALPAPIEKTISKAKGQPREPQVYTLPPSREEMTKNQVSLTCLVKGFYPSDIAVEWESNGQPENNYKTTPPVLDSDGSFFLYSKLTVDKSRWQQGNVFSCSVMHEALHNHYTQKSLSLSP
# light: DIVMTQSPATLSLSPGERATLSCTSSQSVYHANWLSWFQQKPGQPPKLLIYWASTLAYGVPSRFSGSGSGTDFTLTISSLQPEDAATYYCAGGYGGGRYAFGQGTKVEIKRTVAAPSVFIFPPSDEQLKSGTASVVCLLNNFYPREAKVQWKVDNALQSGNSQESVTEQDSKDSTYSLSSTLTLSKADYEKHKVYACEVTHQGLSSPVTKSFNRGEC
# notes: copies: 2 + 2
# B8: M103205H795-P1486m/M103202L889-SK1 (antibody, human IgG1, kappa, name in EU numbering)
# heavy: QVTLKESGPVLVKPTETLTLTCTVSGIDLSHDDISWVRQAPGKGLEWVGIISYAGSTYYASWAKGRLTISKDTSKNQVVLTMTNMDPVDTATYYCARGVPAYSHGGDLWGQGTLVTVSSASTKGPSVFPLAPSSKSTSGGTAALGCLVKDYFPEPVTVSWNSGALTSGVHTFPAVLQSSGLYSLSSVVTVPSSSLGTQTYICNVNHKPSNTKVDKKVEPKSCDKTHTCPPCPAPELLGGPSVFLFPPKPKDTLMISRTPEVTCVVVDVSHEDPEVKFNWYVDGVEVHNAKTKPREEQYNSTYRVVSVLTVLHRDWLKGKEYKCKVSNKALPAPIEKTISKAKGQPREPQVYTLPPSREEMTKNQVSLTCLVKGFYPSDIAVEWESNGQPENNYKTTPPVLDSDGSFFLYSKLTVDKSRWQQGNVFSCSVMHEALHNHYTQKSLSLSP
# light: DIVMTQSPATLSLSPGERATLSCTSSQSVYHANWLSWFQQKPGQPPKLLIYWASTLAYGVPSRFSGSGSGTDFTLTISSLQPEDAATYYCAGGYGGGRYAFGQGTKVEIKRTVAAPSVFIFPPSDEQLKSGTASVVCLLNNFYPREAKVQWKVDNALQSGNSQESVTEQDSKDSTYSLSSTLTLSKADYEKHKVYACEVTHQGLSSPVTKSFNRGEC
# notes: copies: 2 + 2
# Experiments:
# [1] = molecular target: T1, soluble mouse FcγRII, His-tagged (mouse, UniProt P08101 30-210, limits assumed); test: SPR, mouse FcγRII captured via His-tag, antigen-antibody complex injected, pH 7.4, 25 C
# T1 construct: Captured on the chip through an anti-His antibody
# T1 sequence (looked up): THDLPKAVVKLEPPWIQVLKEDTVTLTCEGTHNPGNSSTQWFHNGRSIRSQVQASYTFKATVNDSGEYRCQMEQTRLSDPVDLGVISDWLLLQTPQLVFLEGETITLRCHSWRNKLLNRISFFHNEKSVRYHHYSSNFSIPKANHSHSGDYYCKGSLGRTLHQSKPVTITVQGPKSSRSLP
# Description: Regarding the produced Fc region variant-containing antibodies, binding assays between soluble mouse FcγRII and antigen-antibody complexes were performed using BIACORE® T200 (GE Healthcare). Soluble mouse FcγRII was produced in the form of a His-tagged molecule by a method known to those skilled in the art. An appropriate amount of an anti-His antibody was fixed onto Sensor chip CM5 (GE Healthcare) by the amine coupling method using a His capture kit (GE Healthcare) to capture mouse FcγRII. Next, an antibody-antigen complex and a running buffer (as a reference solution) were injected, and interaction was allowed to take place with the mouse FcγRII captured onto the sensor chip. 20 mM N-(2-Acetamido)-2-aminoethanesulfonic acid, 150 mM NaCl, 1.2 mM CaCl₂), and 0.05% (w/v) TWEEN® 20 at pH7.4 was used as the running buffer, and the respective buffer was also used to dilute the soluble mouse FcγRII. To regenerate the sensor chip, 10 mM glycine-HCl at pH1.5 was used. All measurements were carried out at 25° C. […] To calculate the parameters, the BIACORE® T100 Evaluation Software (GE Healthcare) was used.
# [2] = molecular target: T2, human FcγRIIb constitutively expressed on MDCK cells (human, UniProt P31994 43-310); test: cell-based or functional assay
# T2 sequence (looked up): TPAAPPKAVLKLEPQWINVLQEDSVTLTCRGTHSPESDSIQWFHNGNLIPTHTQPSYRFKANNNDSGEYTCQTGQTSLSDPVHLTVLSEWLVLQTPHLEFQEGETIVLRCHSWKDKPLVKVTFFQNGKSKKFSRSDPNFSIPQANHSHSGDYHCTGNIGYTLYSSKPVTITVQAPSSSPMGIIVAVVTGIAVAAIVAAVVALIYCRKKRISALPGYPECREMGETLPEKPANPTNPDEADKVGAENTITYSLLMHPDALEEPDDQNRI
Binder,"biacore IC binding (relative, SG1 = 1.00) [1]",celluar uptake (labelled human latent myostatin taken up as antigen-antibody complex) [2]
B1,1.21 relative to SG1,3.43 relative to SG1 = 1.00
B2,1.46 relative to SG1,1.23 relative to SG1 = 1.00
B3,1.28 relative to SG1,1.33 relative to SG1 = 1.00
B4,1.24 relative to SG1,1.68 relative to SG1 = 1.00
B5,1.33 relative to SG1,0 relative to SG1 = 1.00
B6,1.43 relative to SG1,1.45 relative to SG1 = 1.00
B7,1.29 relative to SG1,1.88 relative to SG1 = 1.00
B8,1.2 relative to SG1,1.52 relative to SG1 = 1.00
